B1: mCGL-AV: fusion protein of mouse cystathione-γ-lyase mutant with three mutations (SEQ ID NO:3) and annexin V; post-cleavage SEQ ID NO:10 (protein)
chain: MHHHHHHSSGLVPRGSGMKETAAAKFERQHMDSPDLGTDDDDKMLEVLFQGPMQKDASLSGFLPSFQHFATQAIHVGQEPEQWNSRAVVLPISLATTFKQDFPGQSSGFNYSRSGNPTRNCLEKAVAALDGAKHSLAFASGLAATITITHLLKAGDEIICMDEVYGGTNLYFRRVASEFGLKISFVDCSKTKLLEAAITPQTKLVWIETPTNPTLKLADIGACAQIVHKRGDIILVVDNTFMSAYFQRPLALGADICMCSATKYMNGHSDVVMGLVSVNSDDLNSRLRFLQNSLGAVPSPFDCYLCCRGLKTLQVRMEKHFKNGMAVARFLETNPRVEKVVYPGLPSHPQHELAKRQCSGCPGMVSFYIKGALQHAKAFLKNLKLFTLAVSLGGYESLAELPAIMTHASVPEKDRATLGINDTLIRLSVGLEDEQDLLEDLDRALKAAHPSGGGGSGGGGMATRGTVTDFPGFDGRADAEVLRKAMKGLGTDEDSILNLLTSRSNAQRQEIAQEFKTLFGRDLVDDLKSELTGKFEKLIVAMMKPSRLYDAYELKHALKGAGTDEKVLTEIIASRTPEELSAIKQVYEEEYGSNLEDDVVGDTSGYYQRMLVVLLQANRDPDTAIDDAQVELDAQALFQAGELKWGTDEEKFITIFGTRSVSHLRRVFDKYMTISGFQIEETIDRETSGNLEQLLLAVVKSIRSIPAYLAETLYYAMKGAGTDDHTLIRVVVSRSEIDLFNIRKEFRKNFATSLYSMIKGDTSGDYKKALLLLCGGEDD
modifications: pre-cleavage amino acid sequence of the mCGL-AV fusion protein
B2: mCGL-AI: fusion protein of mouse cystathione-γ-lyase mutant with three mutations (SEQ ID NO:3) and annexin I; post-cleavage SEQ ID NO:11 (protein)
chain: MHHHHHHSSGLVPRGSGMKETAAAKFERQHMDSPDLGTDDDDKMLEVLFQGPMQKDASLSGFLPSFQHFATQAIHVGQEPEQWNSRAVVLPISLATTFKQDFPGQSSGFNYSRSGNPTRNCLEKAVAALDGAKHSLAFASGLAATITITHLLKAGDEIICMDEVYGGTNLYFRRVASEFGLKISFVDCSKTKLLEAAITPQTKLVWIETPTNPTLKLADIGACAQIVHKRGDIILVVDNTFMSAYFQRPLALGADICMCSATKYMNGHSDVVMGLVSVNSDDLNSRLRFLQNSLGAVPSPFDCYLCCRGLKTLQVRMEKHFKNGMAVARFLETNPRVEKVVYPGLPSHPQHELAKRQCSGCPGMVSFYIKGALQHAKAFLKNLKLFTLAVSLGGYESLAELPAIMTHASVPEKDRATLGINDTLIRLSVGLEDEQDLLEDLDRALKAAHPSGGGGSGGGGMAMVSEFLKQARFLENQEQEYVQAVKSYKGGPGSAVSPYPSFNVSSDVAALHKAIMVKGVDEATIIDILTKRTNAQRQQIKAAYLQENGKPLDEVLRKALTGHLEEVVLAMLKTPAQFDADELRGAMKGLGTDEDTLIEILTTRSNEQIREINRVYREELKRDLAKDITSDTSGDFRKALLALAKGDRCQDLSVNQDLADTDARALYEAGERRKGTDVNVFTTILTSRSFPHLRRVFQNYGKYSQHDMNKALDLELKGDIEKCLTTIVKCATSTPAFFAEKLYEAMKGAGTRHKALIRIMVSRSEIDMNEIKVFYQKKYGISLCQAILDETKGDYEKILVALCGGN
modifications: pre-cleavage amino acid sequence of the mCGL-AI fusion protein

Legend:
4T1 tumors = assay: Combination therapy on 4T1 tumors implanted orthotopically: tumor volume and survival; type: in vivo; details: BALB/cJ mice with orthotopic 4T1 tumors; protocols of FIGS. 8 and 9; treatment day 10 to 30
Experimental: Selenomethionine (5 mg/kg IP) was administered 10 h post fusion protein administration. Rapamycin (5 mg/kg IP) and cyclophosphamide (10 mg/kg IP) were administered daily. Treatment began on day 10 and continued until day 30 as indicated by the arrow. Statistical significance vs. untreated is indicated by * (p<0.001).

4T1 lung metastasis = assay: Lung metastasis nodules in 4T1-TdTomato model; type: in vivo, BALB/c mouse; details: after 3 weeks of treatment
Excerpt: A Leica stereomicroscope with an automated ImageJ macro was used to quantify fluorescent nodules in the lung. […] Median nodule size on the log scale is marked. Total nodules per group (n=3 mice) is summed and shown.

[1] = system: CD4+ CD25+ FoxP3+ regulatory T cell; details: comparing mCGL-AV & Sel groups with and without Cyc, after 3 weeks of treatment
Excerpt: CD4+ CD25+ FoxP3+ regulatory T cell levels were quantified with flow cytometry and are presented as a percentage of spleen lymphocytes in BALB/c mice with 4T1 grafts after 3 weeks of treatment or healthy BALB/c mice with no tumor. Data is mean±SE (n=3 mice).

[2] = system: hypoxia-inducible factor-1 alpha (HIF-1-α); assay: Immunohistochemistry staining of HIF-1-α in tumor sections; type: in vivo, BALB/c mice; details: after 3 weeks of treatment
Excerpt: Immunohistochemistry staining of HIF-1-α with DAB development was quantified from whole section images of mice sacrificed after 3 weeks of treatment. Data is presented as mean±SE (n=3 mice). Statistical significance between groups is indicated by +(p<0.01) or * (p<0.001).

[3] = In vivo mCGL-AV plasma clearance (ELISA on serum); design: species or system mice; details: 10 mg/kg intraperitoneal
Experimental: An ELISA assay for mCGL-AV was performed on serum samples at intervals following intraperitoneal administration of mCGL-AV at 10 mg/kg. Data is presented as mean±SE (n=3).
Clearance of the mCGL-AV protein from the circulation of BALB/cJ mice occurred with pharmacokinetics similar to the other enzyme prodrug systems in SCID mice.

[4] = Fusion protein specific IgG + IgM titers after daily IP administration; type: in vivo; details: BALB/c mice
[5] = system: human MDA-MB-231 breast tumors; assay: Dissociation constants of fusion proteins on MDA-MB-231 cells grown in vitro; type: binding; details: for Kd: MDA-MB-231 cells in vitro, ± SE (n = 3), read-out: Dissociation Constant (Kd) MDA-MB-231
[6] = system: human HAAE-1 endothelial cells; assay: Dissociation constants of fusion proteins on HAAE-1 cells grown in vitro; type: binding; details: for Kd: HAAE-1 cells in vitro, ± SE (n = 3), read-out: Dissociation Constant (Kd) HAAE-1
mouse 4T1 breast tumors = assay: AV- and AI-targeted mCGL enzyme prodrug therapy on orthotopic 4T1 tumors; type: in vivo; details: BALB/c mice; fusion protein 10 mg/kg IP daily with selenomethionine 5 mg/kg IP
Experimental: FIG. 6 is a comparison of efficacy of AV- and AI-targeted mCGL enzyme prodrug therapy with selenomethionine on 4T1 tumors implanted orthotopically in BALB/c mice. mCGL-AV and mCGL-AI were administered daily (10 mg/kg IP). Selenomethionine (5 mg/kg IP) was administered 10 h post fusion protein administration. Treatment began on day 11 and continued until day 18 as indicated by the arrow. Statistical significance vs. untreated is indicated by * (p<0.001). No significant difference was observed between treatment groups. […] Data is presented as mean volume±SE (n=6).

[7] = L-methioninase enzyme activity of fusion proteins; type: biochemical; details: for L-methioninase enzyme activity compared with Met-AV: versus Met-AV fusion protein

Row | Molecule | Median Survival (4T1 tumors) | Kd [5] | Binding to MDA-MB-231 tumor cells in vitro [5] | Kd [6] | Binding to HAAE-1 human endothelial cells in vitro [6] | Negative effects of treatment (mouse 4T1 breast tumors) | L-methioninase enzyme activity [7] | L-methioninase enzyme activity compared with Met-AV [7] | also measured
1 | O=P1(N(CCCl)CCCl)NCCCO1 (stereo not shown) [Cyc, cyclophosphamide] | 23 days |  |  |  |  |  |  |  | Lung metastatic nodules, number and size (4T1 lung metastasis): reduced numbers of metastases; Regulatory T cell levels in spleen [1]: mild reduction in regulatory T cell levels; HIF-1-α expression in tumor sections [2]: drastic reduction of HIF-1-α expression
2 | CO[C@H]1C[C@@H]2CC[C@@H](C)[C@@](O)(O2)C(=O)C(=O)N2CCCC[C@H]2C(=O)O[C@H]([C@H](C)C[C@@H]2CC[C@@H](O)[C@H](OC)C2)CC(=O)[C@H](C)/C=C(\C)[C@@H](O)[C@@H](OC)C(=O)[C@H](C)C[C@H](C)/C=C/C=C/C=C/1C [Rap, rapamycin] | 14 days |  |  |  |  |  |  |  | 
3 | C[Se]CC[C@H](N)C(=O)O [Sel, selenomethionine] | 18 days |  |  |  |  |  |  |  | 
4 | B1 | 18 days | 2.5 nM | bound strongly | 0.11 nM | bound strongly | No negative effects were observed | 1.3 U/mg | substantially equivalent | Time to complete clearance from the circulation ([3]; BALB/cJ mice): ≤ 10 h; Clearance from the circulation (time) ([3]; SCID mice, ELISA on serum): < 10 h; Fusion protein specific IgG + IgM titer, Day 0 ([4]; daily 10 mg/kg IP, Day 0): Not detected; Fusion protein specific IgG + IgM titer, Day 7 ([4]; daily 10 mg/kg IP, Day 7): Not Detected; Fusion protein specific IgG + IgM titer, Day 14 ([4]; daily 10 mg/kg IP, Day 14): Not Detected; Fusion protein specific IgG + IgM titer, Day 21 ([4]; daily 10 mg/kg IP, Day 21): Not Detected; Immunogenicity: IgG+IgM antibody titers in the bloodstream ([4]; daily intraperitoneal administration, 21 day period): did not produce detectable IgG+IgM antibody titers
5 | B2 |  | 0.68 nM | bound strongly | 2.3 nM | bound strongly | No negative effects were observed | 1.0 U/mg | substantially equivalent | 

Source: patent US9987241B2, “Enzyme conjugate and prodrug cancer therapy” (The Board of Regents of the University of Oklahoma, priority 2014, dated 2018)
